Source: article PMC9688306, “Construction of Aptamer-Based Nanobiosensor for Breast Cancer Biomarkers Detection Utilizing g-C3N4/Magnetic Nano-Structure”

Molecular target: CA 15-3 (Cancer Antigen 15-3) (UniProt P15941 24-1097)
Experiment: electrochemical aptasensor (CV, SWV, EIS); label-free, ferri/ferrocyanide redox probe; aptamer on g-C3N4/Fe3O4; linear 10-90 U/mL; PBS pH 7.4 (0.1 M), room temperature, 35 min incubation; 0.2 mM ferricyanide probe (label-free) or methylene blue in PBS (label-based)

Sequence of CA 15-3 (Cancer Antigen 15-3) (P15941 24-1097): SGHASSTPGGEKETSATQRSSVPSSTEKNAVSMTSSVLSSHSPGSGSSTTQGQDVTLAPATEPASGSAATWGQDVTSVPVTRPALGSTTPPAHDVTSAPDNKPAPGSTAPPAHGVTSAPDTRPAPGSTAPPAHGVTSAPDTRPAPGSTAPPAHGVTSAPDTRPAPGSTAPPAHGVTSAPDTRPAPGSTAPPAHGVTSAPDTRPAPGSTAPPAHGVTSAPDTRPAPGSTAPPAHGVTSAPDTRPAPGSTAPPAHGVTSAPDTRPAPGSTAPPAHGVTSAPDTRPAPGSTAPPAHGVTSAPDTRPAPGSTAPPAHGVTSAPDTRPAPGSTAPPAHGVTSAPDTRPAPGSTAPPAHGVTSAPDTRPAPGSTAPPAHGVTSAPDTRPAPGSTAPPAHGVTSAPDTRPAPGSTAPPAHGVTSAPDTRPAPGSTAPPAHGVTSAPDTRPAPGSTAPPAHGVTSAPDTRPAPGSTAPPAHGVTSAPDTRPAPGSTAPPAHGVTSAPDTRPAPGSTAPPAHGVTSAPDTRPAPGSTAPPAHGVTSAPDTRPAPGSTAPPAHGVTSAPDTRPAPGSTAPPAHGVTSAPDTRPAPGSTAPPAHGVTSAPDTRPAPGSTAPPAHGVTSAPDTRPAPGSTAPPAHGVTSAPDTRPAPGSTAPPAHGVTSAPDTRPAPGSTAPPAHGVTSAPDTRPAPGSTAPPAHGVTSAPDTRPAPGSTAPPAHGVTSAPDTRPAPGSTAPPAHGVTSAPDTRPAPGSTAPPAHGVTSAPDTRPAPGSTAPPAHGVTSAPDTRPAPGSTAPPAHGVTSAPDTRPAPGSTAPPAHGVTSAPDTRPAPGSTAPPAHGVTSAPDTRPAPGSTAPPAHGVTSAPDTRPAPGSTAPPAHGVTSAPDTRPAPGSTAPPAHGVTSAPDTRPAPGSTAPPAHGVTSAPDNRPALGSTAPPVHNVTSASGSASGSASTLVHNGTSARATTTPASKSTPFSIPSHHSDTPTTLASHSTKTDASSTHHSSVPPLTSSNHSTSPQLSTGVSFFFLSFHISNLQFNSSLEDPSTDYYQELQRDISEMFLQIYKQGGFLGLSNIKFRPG

B1: CA 15-3 aptamer (ssDNA)
DNA: GAAGTGAATATGACAGATCACAACT
  binding result: binds
